Data reported in paper PMC10786891, “Massively parallel profiling of RNA-targeting CRISPR-Cas13d”.
Changes are numbered by the printed parent chain. Numbers in names are those of the source.

T1: EsCas13d, nuclease-dead (Eubacterium siraeum, UniProt B0MS50, R295A;H300A;R849A;H854A)
T1 sequence: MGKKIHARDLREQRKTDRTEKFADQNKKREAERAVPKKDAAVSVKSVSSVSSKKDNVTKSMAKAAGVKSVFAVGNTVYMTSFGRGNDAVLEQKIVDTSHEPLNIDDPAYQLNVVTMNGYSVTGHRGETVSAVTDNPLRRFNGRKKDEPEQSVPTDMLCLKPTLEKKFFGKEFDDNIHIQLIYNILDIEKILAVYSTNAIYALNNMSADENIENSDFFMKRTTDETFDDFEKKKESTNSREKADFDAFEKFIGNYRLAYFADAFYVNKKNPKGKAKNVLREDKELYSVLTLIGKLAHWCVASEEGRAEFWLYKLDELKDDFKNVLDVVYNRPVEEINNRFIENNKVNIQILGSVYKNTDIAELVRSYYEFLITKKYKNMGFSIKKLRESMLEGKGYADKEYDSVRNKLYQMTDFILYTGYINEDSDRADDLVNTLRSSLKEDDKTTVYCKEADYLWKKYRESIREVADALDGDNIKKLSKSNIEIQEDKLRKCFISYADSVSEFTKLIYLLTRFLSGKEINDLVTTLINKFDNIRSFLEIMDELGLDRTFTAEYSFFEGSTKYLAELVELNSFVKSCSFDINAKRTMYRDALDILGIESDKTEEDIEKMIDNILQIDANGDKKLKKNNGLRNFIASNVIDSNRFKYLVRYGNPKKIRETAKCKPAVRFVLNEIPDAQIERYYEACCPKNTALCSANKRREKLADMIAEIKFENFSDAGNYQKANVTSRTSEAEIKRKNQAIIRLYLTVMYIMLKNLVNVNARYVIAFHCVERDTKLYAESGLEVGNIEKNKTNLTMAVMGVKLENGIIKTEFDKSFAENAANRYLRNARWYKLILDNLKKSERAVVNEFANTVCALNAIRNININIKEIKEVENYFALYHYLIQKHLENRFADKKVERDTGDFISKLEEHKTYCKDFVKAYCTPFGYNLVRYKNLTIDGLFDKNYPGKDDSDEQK

B1: target 1 insA 3' of 15 (mixed)
RNA 1: CACCCGUGCAAAAAUGCAGGGGUCUAAAACUGAGCGGAUAACCUCUCUAUGG
RNA 2: GGGAAUGGAUCCACAUCUACGAAUUCGUACCAUAGAGAAGGUUAUCCGCUCACCGAGAUCGGAAGAGCACACGU
B2: target 1 insC 3' of 14,insA 3' of 11 (mixed)
RNA 1: B1 RNA 1
RNA 2: GGGAAUGGAUCCACAUCUACGAAUUCGUACCAUAGAGACGGUAUAUCCGCUCACCGAGAUCGGAAGAGCACACGU
B3: target 1 C6U,U11C (mixed)
RNA 1: B1 RNA 1
RNA 2: GGGAAUGGAUCCACAUCUACGAAUUCGUACCAUAGAGAGGCUAUCUGCUCACCGAGAUCGGAAGAGCACACGU
B4: target 1 insU 3' of 12 (mixed)
RNA 1: B1 RNA 1
RNA 2: B1 RNA 2 with A39G, G41U
B5: target 1 insC 3' of 14,insA 3' of 2 (mixed)
RNA 1: B1 RNA 1
RNA 2: B2 RNA 2 with A43U, U44A, A45U, U46C, C48G, G49C, C50U, U51C, C52A
B6: target 1 insC 3' of 14,insC 3' of 5 (mixed)
RNA 1: B1 RNA 1
RNA 2: B2 RNA 2 with A43U, U44A, A45U, U46C, C48G, G49C
B7: target 1 A14G,G17U (mixed)
RNA 1: B1 RNA 1
RNA 2: B3 RNA 2 with G35U, A38G, C41U, U46C
B8: target 1 A1C,G12U (mixed)
RNA 1: B1 RNA 1
RNA 2: B3 RNA 2 with G40U, C41U, U46C, A51C
B9: target 1 C21A (mixed)
RNA 1: B1 RNA 1
RNA 2: B3 RNA 2 with C31A, C41U, U46C
B10: target 1 insA 3' of 12,insG 3' of 8 (mixed)
RNA 1: B1 RNA 1
RNA 2: B2 RNA 2 with C39G, G41A, A43U, U44A, A45U, U46G
B11: target 1 insU 3' of 9,insG 3' of 9 (mixed)
RNA 1: B1 RNA 1
RNA 2: B2 RNA 2 with C39G, G41U, A45G
B12: target 1 U10A,A16U (mixed)
RNA 1: B1 RNA 1
RNA 2: B3 RNA 2 with A36U, C41U, U42A, U46C
B13: target 1 U8C,U19G (mixed)
RNA 1: B1 RNA 1
RNA 2: B3 RNA 2 with U33G, C41U, U44C, U46C
B14: target 1 insA 3' of 5,insG 3' of 3 (mixed)
RNA 1: B1 RNA 1
RNA 2: B2 RNA 2 with C39G, G41U, A45C, U46C, C47G, C48A, G49C, C50U, U51G
B15: target 1 insU 3' of 21,insU 3' of 14 (mixed)
RNA 1: B1 RNA 1
RNA 2: GGGAAUGGAUCCACAUCUACGAAUUCGUACCUAUAGAGAUGGUUAUCCGCUCACCGAGAUCGGAAGAGCACACGU
B16: target 1 insC 3' of 17,insG 3' of 6 (mixed)
RNA 1: B1 RNA 1
RNA 2: B2 RNA 2 with A36C, G37A, A38G, C39A, A43U, U44A, A45U, U46C, C48G
B17: target 1 insG 3' of 20,insA 3' of 7 (mixed)
RNA 1: B1 RNA 1
RNA 2: B15 RNA 2 with U32A, A33G, U40G, G42U, U44A, A45U, U46C, C47A
B18: target 1 insC 3' of 18,insU 3' of 6 (mixed)
RNA 1: B1 RNA 1
RNA 2: GGGAAUGGAUCCACAUCUACGAAUUCGUACCAUACGAGAGGUUAUCCUGCUCACCGAGAUCGGAAGAGCACACGU
B19: target 1 C4A,G13U (mixed)
RNA 1: B1 RNA 1
RNA 2: B3 RNA 2 with G39U, C41U, U46C, C48A
B20: target 1 insC 3' of 11,insC 3' of 3 (mixed)
RNA 1: B1 RNA 1
RNA 2: GGGAAUGGAUCCACAUCUACGAAUUCGUACCAUAGAGAGGUCUAUCCGCUCCACCGAGAUCGGAAGAGCACACGU
B21: target 1 U3A,U8A (mixed)
RNA 1: B1 RNA 1
RNA 2: B3 RNA 2 with C41U, U44A, U46C, U49A
B22: target 1 A1G,G12U (mixed)
RNA 1: B1 RNA 1
RNA 2: B3 RNA 2 with G40U, C41U, U46C, A51G
B23: target 1 C7A,A20C (mixed)
RNA 1: B1 RNA 1
RNA 2: B3 RNA 2 with A32C, C41U, C45A, U46C
B24: target 1 insG 3' of 14,insG 3' of 11 (mixed)
RNA 1: B1 RNA 1
RNA 2: B2 RNA 2 with C39G, A43G
B25: target 1 C7U,U11G (mixed)
RNA 1: B1 RNA 1
RNA 2: B3 RNA 2 with C41G, C45U, U46C
B26: target 1 insU 3' of 12,insG 3' of 4 (mixed)
RNA 1: B1 RNA 1
RNA 2: B20 RNA 2 with C42U, U50G, C51U
B27: target 1 G13U,A20C (mixed)
RNA 1: B1 RNA 1
RNA 2: B3 RNA 2 with A32C, G39U, C41U, U46C
B28: target 1 insC 3' of 8,insG 3' of 2 (mixed)
RNA 1: B1 RNA 1
RNA 2: B20 RNA 2 with C42U, U43A, A44U, U45C, C52G
B29: target 1 C6U,U19A (mixed)
RNA 1: B1 RNA 1
RNA 2: B3 RNA 2 with U33A, C41U
B30: target 1 G12U (mixed)
RNA 1: B1 RNA 1
RNA 2: B3 RNA 2 with G40U, C41U, U46C
B31: target 1 C7G,U19C (mixed)
RNA 1: B1 RNA 1
RNA 2: B3 RNA 2 with U33C, C41U, C45G, U46C
B32: target 1 insU 3' of 7,insU 3' of 6 (mixed)
RNA 1: B1 RNA 1
RNA 2: B2 RNA 2 with C39G, G41U, A45C, C48U
B33: target 1 A9G (mixed)
RNA 1: B1 RNA 1
RNA 2: B3 RNA 2 with C41U, A43G, U46C
B34: target 1 insU 3' of 5,insU 3' of 5 (mixed)
RNA 1: B1 RNA 1
RNA 2: B2 RNA 2 with C39G, G41U, A45C, U46C, C47G, C48U, G49U
B35: target 1 C2A,G17C (mixed)
RNA 1: B1 RNA 1
RNA 2: B3 RNA 2 with G35C, C41U, U46C, C50A

target: T1, EsCas13d, nuclease-dead; test: crRNA (strand 1, pre-loaded); Mg2+; 40 mM Tris-HCl pH 7.5, 150 mM NaCl, 6 mM MgCl2, 1 mM DTT, 0.1% Tween-20, 0.2 mg/ml BSA; 25 C; 10 min per concentration, then washed; conditions: tags: His6-TwinStrep-SUMO cleaved; N-terminal SNAP kept (SNAP-Surface 488); label: 3' end held by stalled T7 RNA polymerase

Compared with B1, B2 is 7.1-fold higher in Kd: 5.9 ± 0.6 nM for the first, 42 ± 5 nM for the second. The first binds more tightly here.

B3 and B4 are within 1.5-fold of each other in Kd: 9.1 ± 0.6 nM for the first, 7.54 ± 0.28 nM for the second.

B5 and B6 are within error of each other in Kd: 52 ± 13 nM for the first, 75 ± 17 nM for the second.

First: B7
Second: B8
The Kd of the first is 5.6-fold higher: 78 ± 15 nM for the first, 13.9 ± 2.1 nM for the second. The second binds more tightly here.

B9 and B10 are within 1.5-fold of each other in Kd: 24.1 ± 2 nM for the first, 32 ± 2.7 nM for the second.

Compared with B11, B12 is 3.2-fold higher in Kd: 13.2 ± 0.5 nM for the first, 42 ± 4 nM for the second. The first binds more tightly here.

First: B13
Second: B14
The Kd of the first is 13-fold higher: 76 ± 10 nM for the first, 5.94 ± 0.29 nM for the second.

B15 and B16 are within error of each other in Kd: 45 ± 9 nM for the first, 43 ± 8 nM for the second.

B17 and B18 are within 1.5-fold of each other in Kd: 26.1 ± 3 nM for the first, 39 ± 4 nM for the second.

Compared with B19, B20 is 2.4-fold lower in Kd: roughly 70 nM for the first, 28.9 ± 2.7 nM for the second.

B21 and B22 are within 1.5-fold of each other in Kd: 10.6 ± 0.5 nM for the first, 9.4 ± 0.6 nM for the second.

Compared with B23, B24 is 2.9-fold lower in Kd: 61 ± 22 nM for the first, 20.7 ± 0.9 nM for the second. The second binds more tightly here.

Compared with B25, B26 is 2.1-fold lower in Kd: 9.7 ± 0.6 nM for the first, 4.6 ± 0.17 nM for the second.

Compared with B27, B28 is 4.3-fold lower in Kd: roughly 90 nM for the first, 21 ± 1.5 nM for the second.

First: B29
Second: B30
The Kd of the first is 3.4-fold higher: 34.9 ± 2.4 nM for the first, 10.3 ± 0.5 nM for the second. The second binds more tightly here.

Compared with B31, B32 is 1.7-fold higher in Kd: 32.2 ± 2.7 nM for the first, 55 ± 4 nM for the second. The first binds more tightly here.

B33 and B34 are within 1.5-fold of each other in Kd: 13.2 ± 0.4 nM for the first, 19 ± 4 nM for the second.

B35 showed a Kd of 57 ± 5 nM.
